Test results reported in patent publication US20190359687A1 (Bayer, published 2019).
Where a chain is given by its changes, count along the chain named. Numbers in names are those of the source.

Assays:
[1] = target: T1, purified human glycophorin A protein (Sigma, cat # G5017) (human, UniProt P02724 20-150); assay: ELISA, native hGPA
T1 construct: mature; also called Sigma hGPA; Sigma GPA
T1 sequence (looked up): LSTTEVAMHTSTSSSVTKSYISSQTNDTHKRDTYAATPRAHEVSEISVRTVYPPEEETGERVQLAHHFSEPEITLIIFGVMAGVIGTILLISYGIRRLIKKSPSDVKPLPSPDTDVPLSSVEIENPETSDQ

[2] = target: T2, human glycophorin A in the red blood cell membrane (human, UniProt P02724 20-150); assay: ELISA, human RBC membranes;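 note: antibodies bound to isolated human red blood cell membrane ghosts coated on 96-well plates, tested 1.5 h at room temperature, bound antibody quantified with a detection antibody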
T2 construct: whole, on cells; used for intact RBC, isolated RBC membranes and transfected cells; the assay field tells which; also called GPA; hGPA
T2 sequence (looked up): T1 sequence (looked up)
Experimental: In order to evaluate binding of antibodies to GPA in the native context of the red blood cell membrane we made use of isolated red blood cell membranes, also called red blood cells ghosts. These membranes are prepared by first isolating red blood cells from citrated whole blood. Citrated whole blood is layered on to Ficol and centrifuged at low speed for 20 minutes to pellet the red blood cells. The supernatant containing plasma and other blood cells is discarded and the red blood cell pellet is subsequently washed 3 times in 10 cell volumes of phosphate buffered saline (PBS). A 10 ml pellet of purified red blood cells is resuspended in 30 ml of cold low osmorality 20 mM phosphate buffer (pH7.4) and incubated for 30 mins to break open the RBC. After Centrifugation at 10,000 rpm for 30 min at 5° C. the hemoglobin containing supernatant is discarded. To the membrane pellet another 30 ml of 20 mM phosphate buffer is added and the sample centrifuged again at 10,000 rpm for 30 min at 5° C. to pellet the membrane fraction. This wash and centrifugation step is repeated another 4 times. The red blood cell membranes are then resuspended in 20 mL of PBS to achieve an equivalent of approximately 2.5E9 cells/mL and stored frozen at −20° C. Binding of antibodies to RBC ghost can be measured by ELISA in which the RBC ghost suspension (5×10⁶ in 100 ul PBS) was added to each well of flat bottom 96-well ELISA microtiter plates (2HB, Immunolon) and the plates incubated overnight at 4° C. The plates were blocked with Starting blocking buffer (Thermo Fisher) for 2 hours at room temperature (RT). Antibodies or other test molecules were added to each well and incubated for 1.5 hours at RT. After 4 washes 100 ul of an appropriate detection antibody was added to each well and incubated for 1 hour at RT. After 4 washes the detection antibody was measured using appropriate detection reagents.

[3] = target: T2, human glycophorin A in the red blood …; assay: SPR single cycle kinetics, human RBC membranes on L1 sensor; single cycle kinetics, FIG. 6
Experimental: (§1) Kinetic analysis of the antibody binding to human red blood cell membranes was also performed using surface plasmon resonance (SPR) using a Biacore instrument. In this assay membranes prepared from human red blood cells were attached to a L1 sensor matrix and antibodies were flowed over the RBC membranes.

[4] = target: T3, recombinant human GPA ectodomain (human, UniProt P02724 20-91); assay: ELISA, rec hGPA ectodomain
T3 construct: also called recombinant hGPA ECD; recGPA
T3 sequence: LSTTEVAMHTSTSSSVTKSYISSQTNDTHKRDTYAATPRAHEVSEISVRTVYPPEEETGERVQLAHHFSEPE

[5] = target: T4, Cynomolgus monkey glycophorin A on Cynomolgus monkey red blood cells or red blood cell membranes (Cynomolgus monkey); assay: Fab 7 ug/ml on intact cyno RBC, unbound Fab by ELISA; pre-dilution
T4 construct: whole, on cells; also called Cyno RBC; Cynomolgus monkey RBC membranes
Experimental: (§2) The binding of affinity matured Fab antibodies to intact Cynomolgus monkey RBC was measured. Cynomolgus monkey RBC were isolated from fresh anti-coagulated blood by centrifugation through a ficol gradient and washing in PBS buffer. RBC diluted to 1/10th of normal hematocrit were incubated with the Fab at a final concentration of 7 ug/ml for 1 hour at room temperature on a rotating shaker after which a sample was taken and the RBC were pelleted by centrifugation and the supernatant was collected. The remaining RBC suspension was diluted 200-fold in PBS buffer and incubated for a total of 2 hours at room temperature on a rotating shaker and samples were removed at 0, 5 min, 20 min, 1 h and 2 h and the RBC pelleted and the supernatant collected. […] The amount of Fab in the supernatants was then measured using an ELISA assay and the results used to calculate the percentage of the input Fab that was bound to the RBC.

[6] = target: T4, Cynomolgus monkey glycophorin A on …; assay: Fab on intact cyno RBC, unbound Fab by ELISA; 5 min after 200-fold dilution
Experimental: as §2

[7] = target: T4, Cynomolgus monkey glycophorin A on …; assay: Fab on intact cyno RBC, unbound Fab by ELISA; 0 min after 200-fold dilution
Experimental: as §2

[8] = target: T4, Cynomolgus monkey glycophorin A on …; assay: Fab on intact cyno RBC, unbound Fab by ELISA; 60 min after 200-fold dilution
Experimental: as §2

[9] = target: T5, human glycophorin A on human red blood cells or red blood cell membranes (human, UniProt P02724 20-150); assay: Fab on intact human RBC, unbound Fab by ELISA; 20 min after 200-fold dilution
T5 construct: whole, on cells; also called hRBC; human RBC membranes
T5 sequence (looked up): T1 sequence (looked up)
Experimental: (§3) The binding of affinity matured Fab antibodies to intact human RBC was also measured. Human RBC were isolated from fresh anti-coagulated normal human blood by centrifugation through a ficol gradient and washing in PBS buffer. RBC diluted to 1/10th of normal hematocrit were incubated with purified Fab antibodies at a final concentration of 7 ug/ml for 1 hour at room temperature on a rotating shaker after which a sample was taken and the RBC were pelleted by centrifugation and the supernatant was collected. The remaining RBC suspension was diluted 200-fold in PBS buffer and incubated for a total of 2 hours at room temperature on a rotating shaker and samples were removed at 0, 5 min, 20 min, 1 h and 2 h and the RBC pelleted and the supernatant collected. The amount of Fab in the supernatants was then measured using an ELISA assay and the results used to calculate the percentage of the input Fab that was bound to the RBC. […] The percentage that remains bound after 200-fold dilution of the RBC suspension is an indication of the overall strength of the binding to human RBC.

[10] = target: T4, Cynomolgus monkey glycophorin A on …; assay: Fab on intact cyno RBC, unbound Fab by ELISA; 20 min after 200-fold dilution
Experimental: as §2

[11] = target: T5, human glycophorin A on human red blood …; assay: SPR (Biacore), Fab on human RBC membranes; T½ = 0.69/kd; * not accurate;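 for kon: human RBC membranes captured on an L1 sensor chip, Fab fragments passed over as analyte, binding kinetics read by surface plasmon resonance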
Experimental: as §1
(§4) The binding kinetics of the affinity matured Fab antibodies was also measured.

[12] = target: T5, human glycophorin A on human red blood …; assay: SPR (Biacore), Fab on human RBC membranes;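 note: human RBC membranes captured on an L1 sensor chip, Fab fragments passed over as analyte, binding kinetics read by surface plasmon resonance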
Experimental: as §1, §4

[13] = target: T5, human glycophorin A on human red blood …; assay: Fab 7 ug/ml on intact human RBC, unbound Fab by ELISA; pre-dilution
Experimental: as §3

[14] = target: T5, human glycophorin A on human red blood …; assay: Fab on intact human RBC, unbound Fab by ELISA; 120 min after 200-fold dilution
Experimental: as §3

[15] = target: T5, human glycophorin A on human red blood …; assay: SPR (Biacore), Fab on human RBC membranes; * not accurate, instrument limit
Experimental: as §1, §4

[16] = target: T5, human glycophorin A on human red blood …; assay: Fab on intact human RBC, unbound Fab by ELISA; 0 min after 200-fold dilution
Experimental: as §3

[17] = target: T5, human glycophorin A on human red blood …; assay: Fab on intact human RBC, unbound Fab by ELISA; 5 min after 200-fold dilution
Experimental: as §3

[18] = target: T4, Cynomolgus monkey glycophorin A on …; assay: Fab on intact cyno RBC, unbound Fab by ELISA; 120 min after 200-fold dilution
Experimental: as §2

[19] = target: T5, human glycophorin A on human red blood …; assay: Fab on intact human RBC, unbound Fab by ELISA; 60 min after 200-fold dilution
Experimental: as §3

[20] = target: T1, purified human glycophorin A protein …; assay: ELISA, hGPA
Experimental: (§5) Hybridomas were generated from the spleen cells of these mice and these hybriomas were screened first by fluorescence activated cell sorting (FACS) against isolated human and monkey (Cynomolgus monkey and Rhesus monkey) red blood cells (RBC) and then by ELISA against purified human glycophorin A protein (GPA). Isolated RBC were prepared from whole blood from normal human, cynomolgus monkey, and beagle dog, were anticoagulant with sodium heparin (Bioreclamation). 2-3 mL of whole blood was loaded gently on the top of 3 mL Ficoll Plus (Sigma Aldrich) then centrifuged at 500 g for 20 min at room temperature (RT). The RBC pellets were washed 3 times with 10 mL of PBS, and centrifuge 400 g for 10 min at RT. RBC pellets were re-suspended in PBS at the same total volume as the original blood volume to achieve the same RBC cell density as in whole blood and stored at 4° C. Purified human glycophorin A protein was obtained from Sigma Aldrich and coated on ELISA plates at 2 ug/ml. Binding of antibodies to human GPA was detected using appropriate secondary antibodies using methods well known in the art.

[21] = target: T6, Cynomolgus monkey glycophorin A on Cynomolgus monkey red blood cells (Cynomolgus monkey); assay: FACS, Cyno RBC
T6 construct: whole, on cells; also called Cyno RBC; Cyno GPA

[22] = target: T3, recombinant human GPA ectodomain; assay: SPR, IgG; SPR, IgG form, recombinant human GPA ectodomain
[23] = target: T2, human glycophorin A in the red blood …; assay: FACS, hu RBC
Experimental: as §5

[24] = target: T7, dog red blood cells (dog); assay: FACS, dog RBC
T7 construct: also called dog RBC
Experimental: as §5

[25] = target: T1, purified human glycophorin A protein …; assay: ELISA, purified IgG
Experimental: The “Sigma GPA” is a crude preparation of human GPA extracted from human red blood cells and is therefore representative of the highly glycosylated form of the native protein.
EC 50 values were determined from a dilution curve of the antibody. Sigma GPA is partially purified GPA extracted from human red blood cells and purchased from Sigma Chemical Company (cat # G5017), asialo hGPA is human GPA that was desialylated and ECD is the recombinantly expressed ectodomain which is the extracellular portion of GPA.

B1: TPP-4935 (Fab, V domains shown)
VH: EVQLVQSGAEVKKPGASVKVSCKASGYTFTTYTIHWVRQAPGQGLEWIGYINPSSDYTRYNPKFKDRVTLTTDKSTSTAYMELRSLRSDDTAVYYCQTGTRDYWGQGTTVTVSS
VL: DIQLTQSPSFLSASVGDRVTITCSAASSVSYIYWFQQKPGKAPKLLIYSTSTLPSGVPSRFSGSGSGTEYTLTISSLQPEDFATYYCHQRNSFPFTFGQGTKLEIKR
notes: also called Parental; hu6C12-24 parental Fab
[1]
  binding by ELISA relative to parental: 1
[2]
  binding by ELISA relative to parental: 0.99
[3]
  Kd: 130 nM

B2: TPP-5341 (Fab, V domains shown)
VH: B1 VH
VL: B1 VL with A26S
notes: also called VL: (A26S)
[4]
  binding by ELISA relative to parental: 1.19
[1]
  binding by ELISA relative to parental: 1.03
[2]
  binding by ELISA relative to parental: 0.82
[3]
  Kd: 34 nM

B3: TPP-5340 (Fab, V domains shown)
VH: B1 VH
VL: B1 VL with S24R
notes: also called VL: (S24R)
[4]
  binding by ELISA relative to parental: 1.23
[1]
  binding by ELISA relative to parental: 1.17
[2]
  binding by ELISA relative to parental: 0.9
[3]
  Kd: 25 nM

B4: TPP-7783, affinity matured 6C12 Fab (Fab, V domains shown)
VH: B1 VH with T33A, I48M, D56G, D66H, L70M, T72R, Q97W
VL: DIQLTQSPSFLSASVGDRVTITCRASSSVRYIYWFQQKPGKAPKLLIYATSFRRSGVPSRFSGSGSGTEYTLTISSLQPEDFATYYCHQRNSFPYTFGQGTKLEIK
notes: Tested as Fab
[5]
  percentage of input antibody bound: 72%
[6]
  percentage of input antibody bound: 62%
[7]
  percentage of input antibody bound: 60%
[8]
  percentage of input antibody bound: 64%
[9]
  percentage of input antibody bound: 86%
[10]
  percentage of input antibody bound: 62%
[11]
  Estimated T½: 33 days
[12]
  kon: 267000 M⁻¹ s⁻¹
[13]
  percentage of input antibody bound: 90%
[14]
  percentage of input antibody bound: 85%
[15]
  Kd: 0.000904 nM
  koff: 2.42e-07 s⁻¹
[16]
  percentage of input antibody bound: 87%
[17]
  percentage of input antibody bound: 86%
[18]
  percentage of input antibody bound: 56%
[19]
  percentage of input antibody bound: 84%

B5: TPP-7794, affinity matured 6C12 Fab (Fab, V domains shown)
VH: B1 VH with T33A, I48M, D56G, D66H, L70M, T72R, Q97W
VL: B4 VL with R54Q
notes: Tested as Fab
[5]
  percentage of input antibody bound: 73%
[6]
  percentage of input antibody bound: 66%
[7]
  percentage of input antibody bound: 67%
[8]
  percentage of input antibody bound: 67%
[9]
  percentage of input antibody bound: 90%
[10]
  percentage of input antibody bound: 65%
[11]
  Estimated T½: 922 days
[13]
  percentage of input antibody bound: 93%
[14]
  percentage of input antibody bound: 90%
[15]
  Kd: < 0.01 nM
  koff: < 2e-05 s⁻¹
  kon: 2.22e+07 M⁻¹ s⁻¹
[16]
  percentage of input antibody bound: 92%
[17]
  percentage of input antibody bound: 91%
[18]
  percentage of input antibody bound: 57%
[19]
  percentage of input antibody bound: 90%

B6: TPP-7797, affinity matured 6C12 Fab (Fab, V domains shown)
VH: B1 VH with I48M, D56G, D66G, L70M, T72R, Q97W, T100R
VL: B4 VL with R54Q
notes: Tested as Fab
[5]
  percentage of input antibody bound: 79%
[6]
  percentage of input antibody bound: 66%
[7]
  percentage of input antibody bound: 81%
[8]
  percentage of input antibody bound: 56%
[9]
  percentage of input antibody bound: 94%
[10]
  percentage of input antibody bound: 59%
[11]
  Estimated T½: 0.487 days
[13]
  percentage of input antibody bound: 97%
[14]
  percentage of input antibody bound: 92%
[15]
  Kd: 0.000253 nM
  koff: 1.64e-05 s⁻¹
  kon: 6.49e+07 M⁻¹ s⁻¹
[16]
  percentage of input antibody bound: 96%
[17]
  percentage of input antibody bound: 95%
[18]
  percentage of input antibody bound: 50%
[19]
  percentage of input antibody bound: 94%

B7: 7G4E9/A8 (antibody, V domains shown)
VH: QVQLKESGPGLVAPSQSLSITCTVSGFSLTRFGISWVRQPPGKGLEWMGVIWGDGSTDYHSALISRLSITKDNSKSQVFFRLNSLQSDDSATYYCARSFGMDYWGQGTSVTVSS
VL: NIMMTQSPSSLAVSAGEKVTMSCKSSQSILNSSNQKNYLAWYQQKPGQSPKLLIYWASTRESGVPDRFTGSGSGTDFTLTISSVQAEDLAVYYCHQYFSSRTFGGGTKLEIK
notes: as m8
[20]
  EC50: 0.071 nM
[21]
  FACS signal: 8 relative flourescence units
[22]
  Kd: 5.92 nM
  koff: 0.00046 s⁻¹
  kon: 77700 M⁻¹ s⁻¹
  t½: 0.0174 days
[23]
  FACS signal: 2830 relative flourescence units
[24]
  FACS signal: 0.98 relative flourescence units
[25]
  EC50: 0.33 nM
